In patent publication CN113151186A (UNIV SHANGHAI JIAOTONG, dated 2021):

Target: T1, 全长CD271蛋白抗原 (human CD271, full-length protein antigen) (human, UniProt P08138 29-250, limits assumed)
T1 construct: Printed only as full-length CD271 protein; also called CD271全长蛋白; 全长抗原CD271
T1 sequence (looked up): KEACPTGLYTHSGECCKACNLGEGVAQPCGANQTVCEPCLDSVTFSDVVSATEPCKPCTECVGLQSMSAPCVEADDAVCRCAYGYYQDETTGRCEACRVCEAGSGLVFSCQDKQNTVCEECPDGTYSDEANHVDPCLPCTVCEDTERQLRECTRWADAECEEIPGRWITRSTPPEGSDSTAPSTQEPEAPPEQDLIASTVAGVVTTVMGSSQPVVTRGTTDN
Assay: BLI (ForteBio), full-length CD271 immobilised on ProA sensor, antibody at 30-130 nM

Kd: 3.37 nM
koff: 0.000225 s⁻¹
kon: 66900 M⁻¹ s⁻¹
B1: 抗人CD271单克隆抗体 CD271T-2 (小鼠腹水纯化抗体, 杂交瘤细胞株CD271T-2, CGMCC 21494) (antibody, V domains shown)
VH: QVTLKESGPGILKPSQTLSLTCSFSGFSLSTSGMGVGWIRQPSGKGLEWLAHIWWDDDKYYNPSLKSQLTISKDTSRNQVFLKITSVDTAGTATYYCARRDYGNYYAMDYWGQGTSVTVS
VL: DIVLTQSPASLAVSLGQRATISCKASQSVDYDGDSYMNWYQQKPGQPPKLLIYAASNLESGIPARFSGSGSGTDFTLNIHPVEEEDAATYYCQQSNEDPFTFGSGTKLEIK
notes: It was purified from mouse ascites on MabSelect SuRe; also called CD271T-2腹水纯化抗体; 抗人CD271腹水抗体
